Results on seven molecules are retold here after US20150093336A1 (VIB VZW, published 2015).

Sequences and labels used below:
B1: NbhMMRm16.95 (VHH)
VHH: QVQLQESGGGLVQPGGSLGLSCAASGRIASISAMGWYRQAPGKQRELVAAITGSGRTNYADSVKGRFTISRDNAKNTVYLQMNSLKPEDTAVYYCNLLMVDYGLGLGTDYWGQGTQVTVSS
notes: Produced from pMECS with C-terminal HA and 6xHis tag
B2: NbhMMRm12.6 (VHH)
VHH: QVQLQESGGGLVQPGGSLRLSCVVSGSFLSINHMGWYRQVSGEQRELVAAITSGGSTNYADSVKGRFTISRDSAKNTVYLQMNSLKPEDTAVYYCNADALTMLPPFDFWGQGTQVTVSS
notes: as for B1
B3: NbhmMMRm18.63 (VHH)
VHH: QVQLQESGGGLVQPGGSLRLSCAPSGSIISINAMAWYRQAPGKERELVAAISSGGSTYYADSVKGRFTISGDIAKNLLWLQMNSLKPEDTAMYYCAPGGGWRPGAWGQGTQVTVSS
notes: Only tested as periplasmic extract in PE-ELISA; clone carries C-terminal HA and 6xHis tag
B4: NbhmMMRm27.95 (VHH)
VHH: QVQLQESGGRLGAAGGSLRLSCTASGFPFNIYPMSWVRQAPGKGFEWVSYISHGGTTTDYSDAVKGRFTISRDNAKNRLYLQMDSLKPEDTAVYFCAQGYARLMTDSELVRGQGTQVTVSS
notes: as for B3
B5: NbhmMMRm13.89 (VHH)
VHH: QVQLQESGGGLVQPGGSLRLSCAASGSIFSINAWGWYRQAPGKQRELVAEITSSGSTNYADSVKGRFTISGDNAKNSVYLHMNNLEPEDTAVYYCKAVAVTFTTPRSDYWGRGTQVTVSS
notes: as for B3
B6: NbhmMMRm8.67 (VHH)
VHH: QVQLQESGGGLVQAGDSLRLSCLATGSMFSINAWGWYRQAPGKQRELVASITSGGGSTEYAESVKGRFTISRDSAKNMLYLQMNSLRPEDTAVYYCNAERWDGYALGYSPNHGSGHRPYNYWGQGTQVTVSS
notes: as for B3
B7: NbhmMMRm25.86 (VHH)
VHH: QVQLQESGGGLVQPGGSLRLSCAGSGFTVSTSMINWARQVPGKELEWLVDVLPSGSTYYADPVKGRFTISRDNAQNTIYLQMNYLKPEDTAIYYCAINRETMPPFRGQGTQVTVSS
notes: as for B3

One test has as its target T1, Recombinant mouse MMR (R&D systems) (mouse, UniProt Q61830 20-1388).
T1 construct: Antigen of the PE-ELISA and the SPR; also called mMMR; recombinant mMMR
T1 sequence: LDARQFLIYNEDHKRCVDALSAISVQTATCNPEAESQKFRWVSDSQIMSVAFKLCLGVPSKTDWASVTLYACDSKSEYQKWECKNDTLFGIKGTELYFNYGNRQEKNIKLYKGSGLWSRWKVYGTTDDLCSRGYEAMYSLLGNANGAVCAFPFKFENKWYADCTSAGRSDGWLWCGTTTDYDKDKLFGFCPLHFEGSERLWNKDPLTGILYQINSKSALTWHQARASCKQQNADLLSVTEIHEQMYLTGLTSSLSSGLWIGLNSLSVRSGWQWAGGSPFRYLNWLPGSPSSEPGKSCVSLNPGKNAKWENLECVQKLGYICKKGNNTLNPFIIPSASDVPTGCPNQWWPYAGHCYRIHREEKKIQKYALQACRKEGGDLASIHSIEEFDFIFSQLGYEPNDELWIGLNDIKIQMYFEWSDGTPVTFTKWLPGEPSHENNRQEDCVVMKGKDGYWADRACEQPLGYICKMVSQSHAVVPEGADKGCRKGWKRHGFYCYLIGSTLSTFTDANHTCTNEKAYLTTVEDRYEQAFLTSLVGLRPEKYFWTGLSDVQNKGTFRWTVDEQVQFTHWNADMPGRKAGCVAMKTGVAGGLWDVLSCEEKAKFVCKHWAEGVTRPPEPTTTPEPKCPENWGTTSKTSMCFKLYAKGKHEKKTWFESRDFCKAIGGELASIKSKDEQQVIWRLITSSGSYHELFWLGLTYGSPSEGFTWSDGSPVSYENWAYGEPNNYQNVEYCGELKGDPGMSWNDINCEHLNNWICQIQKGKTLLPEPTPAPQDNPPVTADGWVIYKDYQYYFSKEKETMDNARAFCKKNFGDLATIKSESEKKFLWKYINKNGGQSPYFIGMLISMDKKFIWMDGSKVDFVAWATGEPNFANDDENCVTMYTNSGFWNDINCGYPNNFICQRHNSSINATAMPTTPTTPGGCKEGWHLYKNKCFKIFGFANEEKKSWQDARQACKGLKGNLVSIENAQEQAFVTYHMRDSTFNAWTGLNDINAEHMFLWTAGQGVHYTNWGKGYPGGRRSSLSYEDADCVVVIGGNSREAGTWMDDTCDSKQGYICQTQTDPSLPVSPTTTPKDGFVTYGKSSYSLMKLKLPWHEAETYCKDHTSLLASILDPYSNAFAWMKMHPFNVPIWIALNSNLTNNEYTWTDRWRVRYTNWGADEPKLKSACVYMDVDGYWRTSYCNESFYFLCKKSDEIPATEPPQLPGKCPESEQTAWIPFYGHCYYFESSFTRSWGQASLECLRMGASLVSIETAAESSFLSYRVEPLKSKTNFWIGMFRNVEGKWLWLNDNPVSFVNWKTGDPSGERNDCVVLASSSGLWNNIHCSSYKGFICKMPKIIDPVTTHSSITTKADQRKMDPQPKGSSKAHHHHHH
In words: SPR, BIAcore T100; mouse MMR on CM5 chip, sdAb as analyte. As to the method: (§1) Affinity analysis was performed using a BIAcore™ T100 (GE Healthcare) with HEPES-buffered saline running buffer (10 mM HEPES with 0.15 M NaCl, 3.4 mM EDTA and 0.005% surfactant P20 at pH 7.4). MRR was immobilized on a CM5 chip in acetate buffer 50 mM (pH 5.0), resulting in 2100 RU MMR coated on the chip. A second channel on the same chip was activated/deactivated in a similar way and served as a negative control. The MMR sdAbs were used as analytes in eleven different concentrations, ranging from 1 to 2000 nM, at a flow rate of […]. Glycine-HCl 50 mM (pH 2.0) was used for elution. The kinetic and equilibrium parameters (kd, ka and KD) values were calculated from the combined sensogram of all concentrations using BIAcore™ T100 evaluation software 2.02 (GE Healthcare).
(§2) The binding characteristics and affinity of selected Nbs towards the recombinant hMMR and recombinant mMMR antigen was examined in further detail using surface plasmon resonance. A combined sensogram was recorded for each Nb (example for NbhmMMRm3.49 in FIG. 5) and the kinetic and equilibrium parameters (kd, ka and KD) values were calculated (Table 4 and Table 5). Most but not all results on binding to mouse or human rMMR obtained via this SPR analysis are in agreement with the results obtained by PE-ELISA.
A general note: SPR reads the build-up and loss of mass on a sensor chip optically.
In the case of B1, the binding result is “no binding (tested: analyte 1 to 2000 nM)”.
Turning to B2, the binding result is “no binding (tested: analyte 1 to 2000 nM)”.

The next test deals with T2, Recombinant human MMR (R&D systems) (human, UniProt P22897 19-1383).
T2 construct: Antigen of the PE-ELISA and the SPR; also called hMMR; recombinant hMMR
T2 sequence: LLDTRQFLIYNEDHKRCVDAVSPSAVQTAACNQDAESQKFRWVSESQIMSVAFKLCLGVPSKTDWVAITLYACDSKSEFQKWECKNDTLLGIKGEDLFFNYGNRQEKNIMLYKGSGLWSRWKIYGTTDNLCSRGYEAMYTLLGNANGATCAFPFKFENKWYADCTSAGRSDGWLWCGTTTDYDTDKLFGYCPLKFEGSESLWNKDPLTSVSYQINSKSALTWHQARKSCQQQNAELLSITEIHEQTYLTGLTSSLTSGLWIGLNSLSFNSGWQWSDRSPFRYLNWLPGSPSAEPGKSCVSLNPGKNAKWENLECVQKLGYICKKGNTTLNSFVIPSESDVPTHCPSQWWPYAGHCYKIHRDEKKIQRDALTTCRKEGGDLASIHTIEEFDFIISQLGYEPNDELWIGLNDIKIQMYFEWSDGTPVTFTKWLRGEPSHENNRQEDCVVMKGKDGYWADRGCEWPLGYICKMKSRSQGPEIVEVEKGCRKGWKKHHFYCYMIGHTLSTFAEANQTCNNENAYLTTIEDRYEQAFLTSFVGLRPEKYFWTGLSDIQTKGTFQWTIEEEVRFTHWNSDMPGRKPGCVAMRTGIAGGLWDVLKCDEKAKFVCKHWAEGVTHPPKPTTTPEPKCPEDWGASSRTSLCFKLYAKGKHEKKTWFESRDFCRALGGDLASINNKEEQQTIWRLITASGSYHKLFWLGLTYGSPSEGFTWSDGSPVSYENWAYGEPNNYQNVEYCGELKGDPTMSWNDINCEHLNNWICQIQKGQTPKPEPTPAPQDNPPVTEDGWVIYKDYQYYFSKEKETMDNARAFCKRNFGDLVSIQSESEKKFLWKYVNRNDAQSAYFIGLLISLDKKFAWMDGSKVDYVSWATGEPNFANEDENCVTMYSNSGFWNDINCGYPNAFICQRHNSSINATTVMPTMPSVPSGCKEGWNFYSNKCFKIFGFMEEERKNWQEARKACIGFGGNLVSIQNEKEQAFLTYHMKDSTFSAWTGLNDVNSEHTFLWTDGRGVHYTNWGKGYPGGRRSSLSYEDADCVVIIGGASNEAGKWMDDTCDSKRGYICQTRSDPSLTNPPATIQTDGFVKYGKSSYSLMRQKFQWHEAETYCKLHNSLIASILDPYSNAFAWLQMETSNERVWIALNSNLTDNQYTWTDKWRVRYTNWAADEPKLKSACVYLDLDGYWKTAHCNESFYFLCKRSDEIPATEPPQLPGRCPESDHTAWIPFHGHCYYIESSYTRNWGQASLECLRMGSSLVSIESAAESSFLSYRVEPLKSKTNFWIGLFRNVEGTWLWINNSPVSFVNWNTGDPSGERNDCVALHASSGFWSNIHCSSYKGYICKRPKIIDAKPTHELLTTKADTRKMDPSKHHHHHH
The test can be described thus: SPR, BIAcore T100; human MMR on CM5 chip, sdAb as analyte. Here is the method: as §1, §2
Regarding B1, the Kd was determined as 21 nM, the off-rate (koff) is 0.0014 s⁻¹ and the kon was 66000 M⁻¹ s⁻¹.
In the same order, the values of B2 are 8.2 nM, 0.0012 s⁻¹ and 150000 M⁻¹ s⁻¹.

The next test deals with T1, Recombinant mouse MMR (R&D systems). The test can be described thus: PE-ELISA: periplasmic extract of the clone on plate-coated mouse MMR, OD405; background = irrelevant milk-blocking proteins. Here is the method: (§3) Specific sdAb phages were enriched by several consecutive rounds of in vitro selection on antigen coated to wells of microtiter plates (Nunc). For isolation of human/mouse MMR cross-reactive Nbs, screening was performed using human and mouse MMR alternatingly. Bound phage particles were eluted with 100 mM triethylamine (pH 11.0), immediately neutralized with 1 M Tris-HCl (pH 7.4) and used to infect E. coli TG1 cells. Individual colonies were picked and expression of recombinant sdAb-M13 protein III by addition of 1 mM isopropyl-β-D-thiogalac-topyranoside (IPTG). The periplasmic extract of each clone was subsequently tested in ELISA for human MMR recognition with non-specific antigen coated wells serving as a negative control. Human/mouse MMR cross-reactive Nbs were also screened in a similar fashion against mouse MMR, only clones reactive with both human and mouse antigens were withheld as cross-reactive Nbs. Each ELISA was performed on plates coated with 1 μg/ml MMR in 100 mM NaHCO₃ buffer pH=8.8. After coating the plates are washed with PBS+0.05% TWEEN®-20 (PBST) and blocked for 2 hours with PBS+0.05% TWEEN® 20+2% non-fat dry milk powder (Nestle) (PBSM). The PE extracts are then incubated for 1 hour on the plate and then washed with PBST followed by 1 hour incubation of 0.5 μg/ml mouse anti-HA tag antibody (16B12, Covance) in PBSM. After washing with PBST, 1.5 μg/ml alkaline phosphatase conjugated anti-mouse antibody (Sigma) in PBSM in added to the plate for 1 hour followed by PBST washing. Finally, the ELISA is developed using 2 mg/ml alkaline phosphatase substrate (Sigma) in AP-buffer (100 mM NaCl, 50 mM MgCl₂, 100 mM Tris pH=9.5) and the optical density signal at 405 nm is measured.
(§4) Next, anti-human/mouse MMR cross-reactive sdAbs were generated (see also Material and Method section). The anti-human/anti mouse MMR phage bank was alternatingly screened on human and mouse MMR for a total of four rounds, resulting in up to 100-fold enrichments for hMMR/mMMR reactive phages from the second panning round. Therefore, 188 colonies from the second and third rounds were selected for PE-expression. These PE-extracts were used in PE-ELISAs to determine which clones react effectively to MMR, clones were selected after the ELISA on hMMR (FIG. 2). These clones were then screened for binding on mouse MMR (FIG. 3).
For orientation: An ELISA detects its analyte on a solid surface through an enzyme-linked reagent.
Regarding B3, the binding result is given as “binds”.
Same read-out and setting: then B4, with “binds”.
As for B5, the binding result was “binds”.
Still for that read-out and setting: the value for B6 was “binds”; that for B7 was “binds”.

A further test concerns the target T2, Recombinant human MMR (R&D systems). The test can be described thus: PE-ELISA: periplasmic extract of the clone on plate-coated human MMR, OD405; background = irrelevant milk-blocking proteins. As to the method: as §3, §4
B3: the binding result is on record as “binds”.
On the same count and under the same terms, the value for B4 was “binds”; that for B5 was “binds”; that for B6 was “binds”.
Regarding B7, the binding result was “binds”.

One may read the Kd as the constant that tells how readily two partners part at equilibrium. In general, koff refers to the rate constant with which the complex falls apart. A word on the kon: it is the rate constant with which the complex forms.
